Earlier results in publication PMC3090270.

Target: PKA RII alpha D/D (UniProt P12367)
Sequence (P12367 2-45): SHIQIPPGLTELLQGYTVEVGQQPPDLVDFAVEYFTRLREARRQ

Chain of D-AKAP2 AKB (O43572 623-649): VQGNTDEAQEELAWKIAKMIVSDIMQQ

Kd: 2 nM
Substance: D-AKAP2 AKB (from UniProt O43572)
